Test results published in publication doi:10.1101/2024.09.12.612615.

Molecular target: Asp64 (UniProt position 64, EGCPTDSIKVA)
Assay: kinetics
Settings: 28 °C; reduced [4Fe-4S] cluster undergoing air oxidation

[4Fe-4S] ferredoxin (BtFd) (Bacillus thermoproteolyticus)
pKa: between a pH of 6.0 to 7.0
